Assays:
[1] = target: T1, canine IL-4 (canine, UniProt O77762 25-132, biotin-labeled in the Octet assay (site not stated)); assay: BLI (Octet HTX), biotin-cIL-4 on SA biosensors; ND = Binding Not Detected
T1 construct: Biotin-labeled and loaded on SA biosensors for the kinetics; unlabeled recombinant protein in the DH82 cell assay; also called cIL-4; canine Interleukin-4
T1 sequence (looked up): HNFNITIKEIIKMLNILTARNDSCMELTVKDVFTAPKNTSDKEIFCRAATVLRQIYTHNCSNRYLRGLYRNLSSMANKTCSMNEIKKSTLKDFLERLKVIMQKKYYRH
Protocol: The binding constants for the cFc fusion proteins provided in Tables 3 and 4 below, were determined using OCTET® HTX. All kinetics measurements were performed by OCTET® HTX using SA® biosensors and DATA ACQUISITION® 12.0 software. 10 μg/mL of biotin-labeled antigen, either canine IL-4 (cIL-4) or canine IL-13 (cIL-13) were loaded onto the SAR biosensors for 120 seconds. Next, the biosensors were placed into 1×pH 7.0 TBS/Casein buffer for 60 seconds for the blocking phase. For the association phase, antigen loaded biosensors were placed into 2-fold serial dilutions from 1 μM down to 15.6 nM of the wild-type, the bispecific, or the FcRn-mutant receptor Fc-fusions that recognized the cIL-4 or cIL-13 antigen in 1×pH 7.0 TBS/Casein buffer for 30 seconds. The last well was buffer alone and that sensor was used for reference sensor subtraction. Finally, the biosensors were placed into 1×pH 7.0 TBS/Casein buffer for 120 seconds for the dissociation phase. The results were then analyzed using Data Analysis 12.0 software and the curves were fitted using a 1:1 binding model.

[2] = target: T2, canine IL-13 (canine, UniProt Q9N0W9 19-131, limits assumed, biotin-labeled in the Octet assay (site not stated)); assay: BLI (Octet HTX), biotin-cIL-13 on SA biosensors, fusion protein in solution, 1:1 fit
T2 construct: Biotin-labeled and loaded on SA biosensors for the kinetics; unlabeled in the DH82 cell assay; also called cIL-13; canine Interleukin-13
T2 sequence (looked up): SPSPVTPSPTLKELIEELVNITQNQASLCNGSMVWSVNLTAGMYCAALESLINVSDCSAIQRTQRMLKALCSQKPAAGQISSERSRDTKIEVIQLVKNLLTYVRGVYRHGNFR

[3] = target: T2, canine IL-13; assay: cell-based or functional assay
[4] = target: T2, canine IL-13; assay: cell-based or functional assay; remark: listed apart in the source
[5] = target: T1, canine IL-4; assay: cell-based or functional assay
[6] = target: T1, canine IL-4; assay: cell-based or functional assay; remark: listed apart in the source
[7] = target: T2, canine IL-13; assay: BLI (Octet); summary table, rounded from Table 4
[8] = target: T2, canine IL-13; assay: cell-based or functional assay; remark: listed apart in the source

B1: cIL-4Rα-13Rα2 ZW1-cFc (Fc fusion)
chain 1: VKVLHEPSCFSDYISTSVCQWKMDHPTNCSAELRLSYQLDFMGSENHTCVPENREDSVCVCSMPIDDAVEADVYQLDLWAGQQLLWSGSFQPSKHVKPRTPGNLTVHPNISHTWLLMWTNPYPTENHLHSELTYMVNVSNDNDPEDFKVYNVTYMGPTLRLAASTLKSGASYSARVRAWAQTYNSTWSDWSPSTTWLNYYEPWEQHLPPKRENGRVPRPPDCPKCPAPEMLGGPSVFIFPPKPKDTLLIARTPEVTCVVVDLDPEDPEVQISWFVDGKQMQTAKTQPREEQFNGTYRVVSVLPIGHQDWLKGKQFTCKVNNKALPSPIERTISKARGQAHQPSVYVYPPSREELSKNTVSLTCLIKDFFPPDIDVEWQSNGQQEPESKYRTTPPQLDEDGSYALVSKLSVDKSRWQRGDTFICAVMHEALHNHYTQESLSHSPGK
chain 2: SMLSNAEIKVNPPQDFEIVDPGYLGYLSLQWQPPLFPDNFKECTIEYELKYRNIDSENWKTIITKNLHYKDGFDLNKGIEAKINTLLPAQCTNGSEVRSSWAETTYWTSPQGNRETKIQDMDCVYYNWQYLVCSWKPGMGVHFDTNYQLFYWYEGLDHSAECTDYIKVNGKNMGCRFPYLESSDYKDFYICVNGSSESQPIRPSYFIFQLQNIVKPMPPDYLSLTVKNSEEINLKWNMPKGPIPAKCFIYEIEFTEDGTTWVTTTVENEIQITRTSNESQKLCFLVRSKVNIYCSDDGIWSEWSDEQCWKGDIWKETPKRENGRVPRPPDCPKCPAPEMLGGPSVFIFPPKPKDTLLIARTPEVTCVVVDLDPEDPEVQISWFVDGKQMQTAKTQPREEQFNGTYRVVSVLPIGHQDWLKGKQFTCKVNNKALPSPIERTISKARGQAHQPSVYVLPPSREELSKNTVSLLCLIKDFFPPDIDVEWQSNGQQEPESKYLTWPPQLDEDGSYFLYSKLSVDKSRWQRGDTFICAVMHEALHNHYTQESLSHSPGK
notes: also called cIL4Rα-IL13Rα2_ZW1-cFc; cIL-4Rα-IL13Rα2_ZW1-cFc
binding result [1]: no binding (tested: 1 µM (highest concentration tested)) | Kd [2]: 4.15 nM | koff [2]: 0.000135 s⁻¹ | kon [2]: 32600 M⁻¹ s⁻¹ | IL-13 IC50 (inhibition of cIL-13 mediated STAT6 phosphorylation in DH82 cells) [3]: 29.4 nM | IL-13 (IC50), summary table [4]: 30 nM | IL-4 (IC50), summary table [5]: 200 nM | IL-4 IC50 (inhibition of cIL-4 mediated STAT6 phosphorylation in DH82 cells) [6]: 184 nM | Kd [7]: 4 nM | fold change of the concentration that inhibits 50% of the cIL-13 mediated STAT6 phosphorylation in DH82 cells, against cIL-13Rα2-cFc [8]: ~200 fold higher
